Test results taken from the supplement of paper PMC6757056.
± gives the standard deviation of the averaged measurements.

B1: library; a variant is named by its letters at N, in order (parent)
chain: GCUGUCACCGGUGCUUGGUACGUUAUAUUCAGCCGGUCUGAUGAGUCUNNNNNNAGACGAAACAGC

Columns and labels:
(6R,S)-folinic acid [1] = variants of: B1; experiment: FACS-Seq fitted mean relative fluorescence mCherry/BFP without ligand (log10 relative fluorescence); HEK293T overexpressing SLC46A1; higher = higher reporter protein expression; conditions: without (6R,S)-folinic acid; ligand present: no
How it was run: (§1)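 Fluorescence figures are normalized fitted normal means of sequenced bin counts. Enriched, lentivirally transduced HEK293T libraries with a ribozyme-switch mCherry reporter and EF1α-BFP were held 48 h with or without ligand, then sorted into 6 mCherry/BFP bins. PCR-amplified, barcoded genomic DNA from each bin was sequenced on MiSeq. Means of log10(mCherry/BFP) were scaled to five spiked-in control ribozymes.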

(6R,S)-folinic acid [2] = variants of: B1; experiment: normalized RNA/DNA level without ligand (relative to sTRSVctl = 100) (log10 (% of sTRSVctl)); HEK293T overexpressing SLC46A1; higher = less ribozyme self-cleavage, higher mRNA level; conditions: without (6R,S)-folinic acid; ligand present: no
Protocol: (§2)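 Hammerhead (sTRSV) ribozyme switch libraries with a ligand aptamer grafted on stem I and a randomized N4-6 loop II, cloned into the 3' UTR of mCherry and transiently transfected into HEK293T cells; RNA-Seq 72 h post transfection with ligand added 1 h before transfection; RNA read count / plasmid DNA read count normalized to the non-cleaving sTRSVctl (x100), log10; sequences with >100 DNA reads. FACS-Seq: lentiviral library sorted into 6 bins after 48 h ligand, log-normal fit mean of mCherry/BFP scaled to controls. Printed sequences are partial switch sequences.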

(6R,S)-folinic acid [3] = variants of: B1; experiment: FACS-Seq fitted mean relative fluorescence mCherry/BFP with ligand (log10 relative fluorescence); HEK293T overexpressing SLC46A1; ligand concentration (+) FACS-Seq: 6 mM; higher = higher reporter protein expression; conditions: with (6R,S)-folinic acid; ligand present: yes
How it was run: as §1

(6R,S)-folinic acid [4] = variants of: B1; experiment: normalized RNA/DNA level with ligand (relative to sTRSVctl = 100) (log10 (% of sTRSVctl)); HEK293T overexpressing SLC46A1; ligand concentration (+) RNA-Seq: 6 mM; higher = less ribozyme self-cleavage, higher mRNA level; conditions: with (6R,S)-folinic acid; ligand present: yes
Protocol: as §2

Variant	FACS-Seq fitted mean (log10) ((6R,S)-folinic acid [1])	normalized RNA/DNA level without ligand (log10) ((6R,S)-folinic acid [2])	FACS-Seq fitted mean (log10) ((6R,S)-folinic acid [3])	normalized RNA/DNA level with ligand (log10) ((6R,S)-folinic acid [4])
GAUGAU	0.196 ± 0.072	1.935 ± 0.019	0.199 ± 0.049	1.98 ± 0.034
GAUGAA	0.212 ± 0.041	1.966 ± 0.012	0.37 ± 0.0079	1.989 ± 0.017
GAUGAC	0.579 ± 0.11	1.95 ± 0.025	0.593 ± 0.085	2.01 ± 0.043
GAUGAG	0.483 ± 0.0054	1.858 ± 0.0066	0.624 ± 0.12	1.978 ± 0.015
CAUCUC	0.717 ± 0.072	2.111 ± 0.017	0.619 ± 0.56	2.08 ± 0.072
UAUGGC	-0.0353 ± 0.039	1.948 ± 0.014	-0.149 ± 0.14	2 ± 0.032
UAUGGG	0.1983 ± 0.0014	1.54 ± 0.028	0.816 ± 0.12	1.91 ± 0.045
UAUGGA	0.416 ± 0.029	1.828 ± 0.012	0.472 ± 0.013	1.98 ± 0.021
CCAAAA	0.502 ± 0.074	1.971 ± 0.0043	0.496 ± 0.19	1.96 ± 0.022
CAUCGC	0.37 ± 0.072	2.019 ± 0.0067	0.228 ± 0.031	1.99 ± 0.041
AAUACU	0.3 ± 0.014	1.995 ± 0.017	0.384 ± 0.13	1.99 ± 0.026
AAUACC	0.72 ± 0.071	2.028 ± 0.004	0.469 ± 0.062	2.03 ± 0.031
UCAAAC	0.446 ± 0.11	2.01 ± 0.0051	0.621 ± 0.079	2.01 ± 0.056
UCAAAA	0.0137 ± 0.17	1.944 ± 0.012	0.0601 ± 0.04	1.99 ± 0.046
CCAAGU	0.0806 ± 0.0022	2.038 ± 0.0087	0.036 ± 0.024	2.04 ± 0.047
AAUCUU	0.524 ± 0.12	2.002 ± 0.013	0.276 ± 0.024	2.013 ± 0.017
AAUCUA	0.267 ± 0.13	1.99 ± 0.013	0.439 ± 0.27	2.014 ± 0.013
GCAAAA	0.327 ± 0.023	1.989 ± 0.0033	0.174 ± 0.032	2 ± 0.051
ACACAU	0.23 ± 0.019	1.965 ± 0.0028	0.348 ± 0.25	2 ± 0.043
UAUUAG	-0.162 ± 0.24	1.781 ± 0.0025	0.0465 ± 0.094	1.98 ± 0.054
UAUUAA	-0.696 ± 0.074	1.946 ± 0.0091	-0.811 ± 0.25	1.98 ± 0.037
UAUUAC	0.106 ± 0.011	1.984 ± 0.0099	0.38 ± 0.24	2 ± 0.035
CAUUAU	0.4935 ± 0.0016	1.976 ± 0.011	0.36 ± 0.13	1.98 ± 0.056
CAUUAC	0.716 ± 0.11	1.984 ± 0.003	0.484 ± 0.06	1.98 ± 0.036

Variant	FACS-Seq fitted mean (log10) ((6R,S)-folinic acid [1])	normalized RNA/DNA level without ligand (log10) ((6R,S)-folinic acid [2])	FACS-Seq fitted mean (log10) ((6R,S)-folinic acid [3])	normalized RNA/DNA level with ligand (log10) ((6R,S)-folinic acid [4])
ACAAGG	0.526 ± 0.062	1.913 ± 0.014	0.524 ± 0.13	2.016 ± 0.014
AAUGGU	0.406 ± 0.13	1.9355 ± 0.00018	0.51 ± 0.099	2 ± 0.055
AAUGGG	0.225 ± 0.07	1.8 ± 0.022	0.233 ± 0.18	2 ± 0.021
AAUCCU	0.552 ± 0.046	2.051 ± 0.0088	0.476 ± 0.068	2.06 ± 0.019
AAUCCA	0.639 ± 0.012	1.995 ± 0.015	0.486 ± 0.014	1.99 ± 0.029
UAUAUG	0.194 ± 0.045	1.75 ± 0.018	0.678 ± 0.12	1.97 ± 0.035
UAUCGG	0.113 ± 0.039	1.69 ± 0.028	0.6479 ± 0.00075	1.94 ± 0.028
AAUCGC	0.375 ± 0.075	2.027 ± 0.017	0.448 ± 0.18	2.01 ± 0.029
AAUCGG	0.494 ± 0.13	1.94 ± 0.017	0.573 ± 0.06	2.01 ± 0.027
CCACUU	0.0563 ± 0.03	1.97 ± 0.021	-0.0467 ± 0.18	1.972 ± 0.007
UAUACC	0.255 ± 0.057	2.011 ± 0.0036	0.126 ± 0.21	2.018 ± 0.014
UAUACU	0.4 ± 0.2	1.9765 ± 0.0012	0.253 ± 0.07	1.99 ± 0.015
UAUACG	0.496 ± 0.089	1.76 ± 0.018	0.905 ± 0.26	1.96 ± 0.02
AAUAGA	0.354 ± 0.04	1.96 ± 0.024	0.344 ± 0.043	2.01 ± 0.034
AAUAGG	0.164 ± 0.037	1.877 ± 0.0074	0.334 ± 0.2	1.99 ± 0.028
AAUAGU	0.361 ± 0.12	1.928 ± 0.0047	0.623 ± 0.097	1.978 ± 0.018
AAUUGG	0.112 ± 0.046	1.93 ± 0.024	0.122 ± 0.064	2 ± 0.022
AAUUGU	0.0241 ± 0.064	1.949 ± 0.019	0.334 ± 0.097	1.98 ± 0.032
AAUUGA	0.309 ± 0.021	1.966 ± 0.0098	0.358 ± 0.11	2 ± 0.0091
UAUCCG	0.17 ± 0.01	1.84 ± 0.017	0.376 ± 0.25	1.993 ± 0.019
GAUUAU	0.371 ± 0.018	1.97 ± 0.013	0.305 ± 0.0094	1.992 ± 0.012
GAUUAG	-0.00141 ± 0.0098	1.95 ± 0.0067	-0.175 ± 0.038	2.005 ± 0.013
GAUUAA	0.2664 ± 0.0013	1.977 ± 0.0031	0.453 ± 0.16	2 ± 0.028
UCACCG	0.426 ± 0.13	1.971 ± 0.006	0.151 ± 0.15	2.01 ± 0.03

Variant	FACS-Seq fitted mean (log10) ((6R,S)-folinic acid [1])	normalized RNA/DNA level without ligand (log10) ((6R,S)-folinic acid [2])	FACS-Seq fitted mean (log10) ((6R,S)-folinic acid [3])	normalized RNA/DNA level with ligand (log10) ((6R,S)-folinic acid [4])
ACAGAC	0.355 ± 0.071	2.0094 ± 0.0017	0.356 ± 0.3	2.021 ± 0.0097
ACAGAG	0.511 ± 0.086	1.6069 ± 0.00022	0.928 ± 0.2	1.94 ± 0.048
ACAGAA	0.191 ± 0.02	1.947 ± 0.0015	0.0345 ± 0.24	2 ± 0.024
ACAGAU	-0.89 ± 0.044	1.95 ± 0.0032	-0.82 ± 0.13	2.03 ± 0.04
ACAAAC	0.439 ± 0.018	2.03 ± 0.025	0.419 ± 0.038	2.02 ± 0.043
ACAAAG	0.424 ± 0.017	1.929 ± 0.019	0.459 ± 0.23	2.01 ± 0.042
UAUUUG	0.00681 ± 0.018	1.82 ± 0.02	0.373 ± 0.0088	1.976 ± 0.017
UAUUUC	0.248 ± 0.026	2.029 ± 0.0031	0.208 ± 0.2	2.01 ± 0.054
UAUUUU	0.372 ± 0.078	2.006 ± 0.0046	0.24 ± 0.13	2.02 ± 0.058
AAUUUG	0.443 ± 0.039	1.952 ± 0.016	0.374 ± 0.038	2.02 ± 0.024
AAUUUU	0.217 ± 0.14	2.04 ± 0.029	0.309 ± 0.3	2.01 ± 0.025
UAUGUG	0.257 ± 0.25	1.65 ± 0.024	0.638 ± 0.018	1.944 ± 0.019
UCAACC	0.654 ± 0.28	2.04 ± 0.023	0.606 ± 0.39	1.978 ± 0.017
UCAACU	0.46 ± 0.092	2.03 ± 0.0056	0.559 ± 0.13	2.04 ± 0.027
GCAGAU	0.24 ± 0.072	1.958 ± 0.011	0.319 ± 0.16	2.02 ± 0.035
CAUGUU	-0.0794 ± 0.016	2.027 ± 0.017	-0.27 ± 0.064	2.04 ± 0.029
CAUGUG	0.241 ± 0.086	2 ± 0.025	0.351 ± 0.27	1.992 ± 0.011
ACACCA	0.658 ± 0.22	2.035 ± 0.0068	0.462 ± 0.1	2.03 ± 0.022
ACACCG	0.142 ± 0.015	1.99 ± 0.022	0.198 ± 0.14	2.01 ± 0.022
CCAGCC	0.159 ± 0.022	2.05 ± 0.025	-0.0156 ± 0.022	2.03 ± 0.039
CCACGU	0.714 ± 0.093	2.053 ± 0.0035	0.4025 ± 0.00094	2.0397 ± 0.0012
GAUAUA	0.295 ± 0.015	1.96 ± 0.005	0.482 ± 0.11	2 ± 0.028
GAUAUG	0.0919 ± 0.075	1.919 ± 0.005	0.0285 ± 0.14	2 ± 0.038
CAUAAU	0.15 ± 0.15	1.955 ± 0.011	0.294 ± 0.038	1.997 ± 0.013
